According to patent US20040266694A1 (published 2004):

Tests used:
[1] = target: T1, Recombinant human Flt-1/Fc chimera (R&D Systems) (human, UniProt P17948-2 27-687, limits assumed); experiment: phage ELISA on Flt-1/Fc captured by anti-Fc, anti-M13-HRP
[2] = target: T1, Recombinant human Flt-1/Fc chimera (R&D …); experiment: receptor binding assay on immobilized Flt-1/Fc, bound peroxidase activity
[3] = target: T1, Recombinant human Flt-1/Fc chimera (R&D …); experiment: receptor binding assay on immobilized Flt-1/Fc; reference: the peptide
[4] = target: T1, Recombinant human Flt-1/Fc chimera (R&D …); experiment: competitive receptor binding assay on immobilized Flt-1/Fc; VEGF against 30 µM fluorescein labeled peptide (SEQ ID NO: 3)
Description: The cocktails were allowed to equilibrate for 4 hours at room temperature. After incubation, micrititer plates were washed with buffer B for 10 times. […] The results are represented as average of triplicate measurement ±SD.

T1 sequence (P17948 other isoform, or with tags, fused parts or gaps mutant limits assumed): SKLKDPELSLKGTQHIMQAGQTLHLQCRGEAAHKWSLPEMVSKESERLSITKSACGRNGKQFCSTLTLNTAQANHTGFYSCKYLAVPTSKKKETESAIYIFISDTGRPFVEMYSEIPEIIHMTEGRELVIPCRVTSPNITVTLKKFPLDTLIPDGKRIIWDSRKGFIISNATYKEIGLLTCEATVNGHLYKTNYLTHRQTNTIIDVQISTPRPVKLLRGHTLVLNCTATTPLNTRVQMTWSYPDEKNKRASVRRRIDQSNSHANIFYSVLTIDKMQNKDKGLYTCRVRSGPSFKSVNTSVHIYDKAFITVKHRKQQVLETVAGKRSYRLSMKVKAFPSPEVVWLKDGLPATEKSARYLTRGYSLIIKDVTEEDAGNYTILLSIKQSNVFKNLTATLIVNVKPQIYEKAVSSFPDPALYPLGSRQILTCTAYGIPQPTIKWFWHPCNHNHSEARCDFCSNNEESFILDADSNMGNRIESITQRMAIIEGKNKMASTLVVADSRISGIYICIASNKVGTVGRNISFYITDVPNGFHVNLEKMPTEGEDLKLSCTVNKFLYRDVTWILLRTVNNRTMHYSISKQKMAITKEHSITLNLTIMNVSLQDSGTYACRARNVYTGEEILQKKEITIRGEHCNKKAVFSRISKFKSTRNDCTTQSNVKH

B1: phage clone V5.10 (control peptide insert encoded by ONV5.10, SEQ ID NO: 10) (other, bacteriophage M13)
chain: PEPEVRLSPPGHIQSLAETVESCLAKPHTENSFTNVWKDDKTLDRYANYEGCLWNATGVVVCTGDETQCYGTWVPIGLAIPENEGGGSEGGGSEGGGSEGGGTKPPEYGDTPIPGYTYINPLDGTYPPGTEQNPANPNPSLEESQPLNTFMFQNNRFRNRQGALTVYTGTVTQGTDPVKTYYQYTPVSSKAMYDAYWNGKFRDCAFHSGFNEDPFVCEYQGQSSDLPQPPVNAGGGSGGGSGGGSEGGGSEGGGSEGGGSEGGGSGGGSGSGDFDYEKMANANKGAMTENADENALQSDAKGKLDSVATDYGAAIDGFIGDVSGLANGNGATGDFAGSNSQMAQVGDGDNSPLMNNFRQYLPSLPQSVECRPFVFSAGKPYEFSIDCDKINLFRGVFAFLLYVATFMYVFSTFANILRNKES
notes: Clone label V5.10 tied to oligonucleotide ONV5.10 by its name only
ABSORBANCE, A 405 [1]: 0.039 A405

B2: phage clone V40 (control peptide insert encoded by ONV40, SEQ ID NO: 11) (other, bacteriophage M13)
chain: FVGGWLVPEDERLYPEAETVESCLAKPHTENSFTNVWKDDKTLDRYANYEGCLWNATGVVVCTGDETQCYGTWVPIGLAIPENEGGGSEGGGSEGGGSEGGGTKPPEYGDTPIPGYTYINPLDGTYPPGTEQNPANPNPSLEESQPLNTFMFQNNRFRNRQGALTVYTGTVTQGTDPVKTYYQYTPVSSKAMYDAYWNGKFRDCAFHSGFNEDPFVCEYQGQSSDLPQPPVNAGGGSGGGSGGGSEGGGSEGGGSEGGGSEGGGSGGGSGSGDFDYEKMANANKGAMTENADENALQSDAKGKLDSVATDYGAAIDGFIGDVSGLANGNGATGDFAGSNSQMAQVGDGDNSPLMNNFRQYLPSLPQSVECRPFVFSAGKPYEFSIDCDKINLFRGVFAFLLYVATFMYVFSTFANILRNKES
notes: Clone label V40 tied to oligonucleotide ONV40 by its name only
ABSORBANCE, A 405 [1]: 0.025 A405

B3: Conjugate NO.: 1, peroxidase-peptide conjugate (other, horseradish)
chain: QLTPTFYDNSCPNVSNIVRDTIVNELRSDPRIAASILRLHFHDCFVNGCDASILLDNTTSFRTEKDAFGNANSARGFPVIDRMKAAVESACPRTVSCADLLTIAAQQSVTLAGGPSWRVPLGRRDSLQAFLDLANANLPAPFFTLPQLKDSFRNVGLNRSSDLVALSGGHTFGKNQCRFIMDRLYNFSNTGLPDPTLNTTYLQTLRGLCPLNGNLSALVDFDLRTPTIFDNKYYVNLEEQKGLIQSDQELFSSPNATDTIPLVRSFANSTQTFFNAFVEAMDRMGNITPLTGTQGQIRLNCRVVNSNS
peptide: CNGYEIEWYSWVTHGMY
modifications: C-terminal amide (NH2); Cys 1 disulfide-linked through SPDP to peroxidase; activated with SPDP (N-succinimidyl-3-(2-pyridylthio)propionate), disulfide-linked to the peptide
notes: also called Conjugate ID NO:1; Conjuguate ID NO 1
EC50 [2]: 100 nM
fold of half-maximum binding concentration against the peptide [3]: 50 fold

B4: human recombinant VEGF (R&D Systems) (ligand, UniProt P15692-4 27-191, looked up)
chain: APMAEGGGQNHHEVVKFMDVYQRSYCHPIETLVDIFQEYPDEIEYIFKPSCVPLMRCGGCCNDEGLECVPTEESNITMQIMRIKPHQGQHIGEMSFLQHNKCECRPKKDRARQENPCGPCSERRKHLFVQDPQTCKCSCKNTDSRCKARQLELNERTCRCDKPRR
notes: also called vascular endothelial factor
IC50 [4]: 5 nM
